Publication PMC8803338

Biological target: sarcomeric α-Actin (ACTC1) (mouse (endogenous in heart)) (UniProt P68033)
Test: co-IP; heart lysates of CTL and α-MHC-cre DKO mice, mouse anti-α-Actin, Protein A/G beads, Western blot, densitometry (n = 4)

- fold change of ACTN co-precipitated with ACTC1, α-MHC-cre DKO hearts against CTL hearts: 0.63 fold
Substance: sarcomeric α-Actinin (ACTN) (from UniProt Q9JI91 1-894) (natural protein)
